Data taken from the supplement of paper PMC12764529.
± gives the half width of the 95% confidence interval.

Assays:
[1] = folding stability dG unfold (combined trypsin and chymotrypsin); higher = more stable
In short: (§1)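 Bayesian fitting of sequencing counts gave K50 for each design. Unfolding free energy followed by setting this against a sequence-predicted unfolded-state K50 and a shared folded-state K50, either per protease or with trypsin and chymotrypsin combined. The designs, under 80 residues and lacking cysteine, were digested in a PA-tagged cDNA display format at 11 threefold-diluted protease concentrations and without protease, and only those with AlphaFold2 dimer inter-PAE above 15 were kept.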

[2] = folding stability dG unfold from trypsin proteolysis; higher = more stable
In short: as §1

[3] = folding stability dG unfold from chymotrypsin proteolysis; higher = more stable
In short: as §1

| Sequence | folding stability dG unfold [1] [kJ/mol] | folding stability dG unfold [2] [kJ/mol] | folding stability dG unfold [3] [kJ/mol] |
| --- | --- | --- | --- |
| SAGGIRIRDEDGKPRAEYTIYHPDHGMPIEINVYRNKDGNPYIQVEMTGPNGRPKKFTMPADDLNDLSAGGS [r8_24_TrROS] | 1.11 ± 0.343 | -3.61 ± 2.18 | 2.34 ± 0.544 |
| SAGGIRIRFWVPSPEEAREMAETIAKWLMEEHPGAKIKIEPKKVEPNPDNGYYRVEVPIKIVLPGQPISAGG [r13_585_TrROS] | 7.1 ± 0.176 | 5.7 ± 0.213 | 7.91 ± 0.238 |
| SAGGITIELRNPNGEPVEVHLKRDPDGTLELSVHMRGPEGRHYMVTMTIKVKNNGIEIDKFDNWYPLPSAGG [r13_451_TrROS] | 15.9 ± 0.46 | 13 ± 0.385 | 17.4 ± 0.351 |
| SAGGITINEDGTITIEVNGKTYTIKLPPGAEITKIEVLEDGTIKITLRINGKTVTLELKVYKEGEEPSAGGS [r16_635_TrROS_Hall] | > 25.1 | 19.1 ± 1.76 | 27.4 ± 2.85 |
| SAGGKATVTITEVKVETETVTLKYDPETGELVEKTETVTRVEVKTITIEADKNPELAEELLKKLGIESAGGS [r16_467_TrROS_Hall] | 10.7 ± 1.17 | 7.06 ± 0.46 | 12.3 ± 1.05 |
| SAGGKEVKIEIEEKDGKLVIKITVKTEEELKEEIKKLLEEEFGLEVEEVKVEKNKNGEVTIYVVIKKKSAGG [r13_158_TrROS_Hall] | 10.5 ± 1.84 | 6.07 ± 0.711 | 11 ± 0.837 |
| SAGGKEVLTVTVEVEIDGVLIRVEAEVTLDEDGNLTVTITRIEIRPLPPPKIDLRDLTDEQRKELGIESAGG [r13_964_TrROS_Hall] | 8.06 ± 0.544 | 8.52 ± 0.402 | 8.46 ± 0.36 |
| SAGGKEYRNPENGQKIPPGDTEEEREKHAREHAKPVIVPIEIPIVIKFGDVIFPIPITFEIPLTPGGSAGGS [r16_387_TrROS] | 0.243 ± 1.34 | 0.171 ± 0.226 | -0.137 ± 1.17 |
| SAGGKFDIMVKVEPPDGKEEELPIKFDSPEEIIEEARAIAEQHGPGDKLKVEIYYPGTGRPIEFEIPSAGGS [r8_107_TrROS] | 1.41 ± 1.42 | 3.34 ± 0.18 | -0.712 ± 0.753 |
| SAGGKFKIVKIEVEEKTVKVKNKDGKIEKKKVKVIKVKIYKDGKLIKEVTFKSKEDMLNALKELLKKSAGGS [r8_21_TrROS_Hall] | 18.2 ± 1.26 | 12.8 ± 0.46 | 18.9 ± 0.962 |
| SAGGKGPKKIILPLKFKIKTKPNEKKSKIKFKLSLKLFPKAKKVEVKSSIKPLKNNYALLDFDIVIEASAGG [r13_872_TrMRF] | 14.9 ± 1.88 | 14.8 ± 0.962 | 15.1 ± 0.544 |
| SAGGKIEELAKELAKKLNIEKVEVEEKDGKLVVKLVVKDKKTNKYYRITIEVDDDGNIKISIEPLPPSAGGS [r16_433_TrROS_Hall] | 21.4 ± 0.837 | 16.4 ± 0.837 | 21.6 ± 0.502 |
| SAGGKIKIKINGKTYTVEDAEIIEVKKNKNGKKEIIIKIKVNGKTYEIVISEEDLKKIKPGDTITLKSAGGS [r16_638_TrROS_Hall] | 12.4 ± 0.247 | 10 ± 0.222 | 13.3 ± 0.188 |
| SAGGKIKIVLSAEELEKKFGKSIEELAAELAKKLFPNKKVKVKKVKIEKDENGKEKLYVEVEIEPEKPSAGG [r13_723_TrROS_Hall] | 13 ± 0.711 | 12.2 ± 0.628 | 13.4 ± 0.305 |
| SAGGKITIEIEEEDGYLVIRIREEKEVYDEETGELKKEEKEITIVLPLEEAKKLAEELNLEIEIVEPSAGGS [r8_337_TrROS_Hall] | 10.1 ± 0.962 | 8.74 ± 0.331 | 10.4 ± 0.669 |
| SAGGKIWIPMDFLKEIAEEGNIKEIEVNPDDGDMYTIKFPNLADKFGEPVTISIRRPPGGNPWIEIEPSAGG [r13_163_TrROS] | 3 ± 0.628 | 0.447 ± 0.418 | 4.51 ± 0.711 |

| Sequence | folding stability dG unfold [1] [kJ/mol] | folding stability dG unfold [2] [kJ/mol] | folding stability dG unfold [3] [kJ/mol] |
| --- | --- | --- | --- |
| SAGGKKIEIEIVFKEGEKAPSAEEIAKKLLEEIPNIKITSIEIVDVEYDEETGEKYVVVKITIEVEPPSAGG [r13_10_TrROS_Hall] | 13.3 ± 1.17 | 12.4 ± 0.753 | 13.1 ± 0.586 |
| SAGGKKIKAKVIEIKKIGDKVLVTIERPDGSPDEVLIDKKEVAEKITPESEVEIEVFPDGSVKIKVGSAGGS [r16_2_TrMRF] | 8.98 ± 0.795 | 8.2 ± 0.364 | 8.49 ± 0.544 |
| SAGGKKIKITVKELKKKLEEEGYEIEEIEIYNKKTGKKIKTIKEGDVIELPENVKNVVIKVKIKKKKSAGGS [r8_243_TrROS_Hall] | 10.8 ± 1.42 | 9.04 ± 0.795 | 12 ± 0.711 |
| SAGGKKIRIVMTEEEIKKLAEALAKELNVEVKIVKVEKKTVFDKNGKPVKTYVVVEIEVKKLPPGVKLSAGG [r13_943_TrROS_Hall] | 6.56 ± 0.669 | 5.43 ± 0.414 | 6.53 ± 0.234 |
| SAGGKKKKKVKIKIEIAIVIPEEDLSEEERKKLAEELAERLKRELAEKLGLSEDEIEEIEVTVYRLPPSAGG [r13_5_TrROS_Hall] | 8.53 ± 0.879 | 7 ± 0.385 | 9.75 ± 0.28 |
| SAGGKKKKPKKKIKIKIVKVEKKYDKKTGKLKEVRIEIEIEAESEEEAKKLAEELAKKLNIEVEVKKKSAGG [r13_606_TrROS_Hall] | 8.42 ± 1.34 | 5.34 ± 0.46 | 10.2 ± 0.402 |
| SAGGKKKKTIVIVLEVSEEEAEKIIEALKKELEKKGFKIEKIEVRKVPDKPMVIVTIKLENGEELTFISAGG [r13_421_TrROS_Hall] | 10.2 ± 0.305 | 8.23 ± 0.218 | 11.1 ± 0.23 |
| SAGGKKKKVITVEVPPEATAEELLAALKKADKVFIRTKDGKVREIKVGEKVSPEELKVKPGDTVEIYVSAGG [r13_399_TrROS_Hall] | 6.4 ± 1 | 4.67 ± 0.502 | 7.29 ± 0.402 |
| SAGGKKKKVKVKVVKVEKLENGTYKVVLEVEVDGKKITLVKEFKTKEDLEKKPKEIEITVEELKKLLKSAGG [r13_540_TrROS_Hall] | 16.2 ± 1.55 | 10.3 ± 0.544 | 18.1 ± 0.92 |
| SAGGKKKVFLLENGELVVFDPETGKLEPVKLPEIPLTVEVEFEEGEGKIRVTVTNPAGLKLEFEFDFSAGGS [r16_453_TrMRF] | 13.3 ± 0.628 | 9.23 ± 0.502 | 15.5 ± 0.418 |
| SAGGKKKVTIEIRKNPEEPGKYIIRVKVDGKEIEIEVSEEDLEEILAALKKLLPPGAKIEKIEIRELPSAGG [r13_519_TrROS_Hall] | 14.4 ± 0.502 | 9.97 ± 0.41 | 16.1 ± 0.339 |
| SAGGKKKYRIKITYKDEGKLYEVPEDVKATVDPNNVVYIEVDSKEAVDELVKAIAPKDGLEVEVEPGSAGGS [r8_131_TrMRF] | 3.83 ± 0.389 | 2.17 ± 0.184 | 4.93 ± 0.364 |
| SAGGKKLLIKVRIEVFNENGELVREEEIEIEVEGMSEEELEELARELLAKLPPENVKIEVEIVELEESAGGS [r16_774_TrROS_Hall] | 17.4 ± 1.46 | 18.1 ± 3.93 | 18 ± 1.55 |
| SAGGKKPKIEVKIEFDEETGKLRIEIRTEDGKLIAEKEIEIDGVLFKVKVIVKDGKLVIEIEAFPKKSAGGS [r16_631_TrROS_Hall] | 15.3 ± 1.05 | 11.7 ± 0.628 | 16.7 ± 0.502 |
| SAGGKKPKKLTPEQIEELAKALAPEGAEVKVEVVEVTEKTVVVKITVKDKETGEEKTIEITLPLPEESAGGS [r16_486_TrROS_Hall] | 9.38 ± 0.92 | 10.3 ± 0.753 | 7.23 ± 0.586 |
